According to publication PMC314469, “Protein Interaction Networks by Proteome Peptide Scanning” (PLoS Biology, 2004):

Experiments:
Assay in all cases: SPOT array
[1] = biological target: T1, Boi1 SH3 (BOI1_YEAST), P38041
T1 chain: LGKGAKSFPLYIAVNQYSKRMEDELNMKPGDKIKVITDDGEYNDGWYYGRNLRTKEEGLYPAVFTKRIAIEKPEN

[2] = biological target: T2, Boi2 SH3 (BOI2_YEAST), P39969
T2 chain: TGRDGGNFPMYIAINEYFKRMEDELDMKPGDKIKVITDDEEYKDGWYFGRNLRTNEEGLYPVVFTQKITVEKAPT

[3] = biological target: T3, Yfr024 SH3 (LSB3_YEAST), P43603
T3 chain: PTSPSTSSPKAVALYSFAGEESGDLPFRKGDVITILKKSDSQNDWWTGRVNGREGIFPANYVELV

[4] = biological target: T4, Rvs167 SH3 (RV167_YEAST), P39743
T4 chain: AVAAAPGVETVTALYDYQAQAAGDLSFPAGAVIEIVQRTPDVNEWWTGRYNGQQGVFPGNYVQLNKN

[5] = biological target: T5, Yhr016c SH3 (YSC84_YEAST), P32793
T5 chain: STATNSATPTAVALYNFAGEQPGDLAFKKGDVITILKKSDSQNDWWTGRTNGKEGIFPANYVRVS

## AGSPIRPYKQRYLL [YGL073W 526-539]
[1]
  normalised SPOT signal, Boehringer light units (BLU); mean over the file's lines of this peptide: 744
[2]
  normalised SPOT signal, Boehringer light units (BLU); mean over the file's lines of this peptide: 352
[3]
  normalised SPOT signal, Boehringer light units (BLU); mean over the file's lines of this peptide: 1770
[4]
  normalised SPOT signal, Boehringer light units (BLU); mean over the file's lines of this peptide: 343
[5]
  normalised SPOT signal, Boehringer light units (BLU); mean over the file's lines of this peptide: 180

## AARPTRPDKARRLG [YLR029C 39-52]
[1]
  normalised SPOT signal, Boehringer light units (BLU); mean over the file's lines of this peptide: 173
[2]
  normalised SPOT signal, Boehringer light units (BLU); mean over the file's lines of this peptide: 198
[3]
  normalised SPOT signal, Boehringer light units (BLU); mean over the file's lines of this peptide: 4960
[4]
  normalised SPOT signal, Boehringer light units (BLU); mean over the file's lines of this peptide: 109
[5]
  normalised SPOT signal, Boehringer light units (BLU); mean over the file's lines of this peptide: 194

## ALRPTGPDRGDGFD [YNL139C 1465-1478]
[1]
  normalised SPOT signal, Boehringer light units (BLU); mean over the file's lines of this peptide: 132
[2]
  normalised SPOT signal, Boehringer light units (BLU); mean over the file's lines of this peptide: 8.2
[3]
  normalised SPOT signal, Boehringer light units (BLU); mean over the file's lines of this peptide: 145
[4]
  normalised SPOT signal, Boehringer light units (BLU); mean over the file's lines of this peptide: 59.8
[5]
  normalised SPOT signal, Boehringer light units (BLU); mean over the file's lines of this peptide: 179

## YYGPNSPLKLDEEN [YKL108W 203-216]
[1]
  normalised SPOT signal, Boehringer light units (BLU); mean over the file's lines of this peptide: 0
[2]
  normalised SPOT signal, Boehringer light units (BLU); mean over the file's lines of this peptide: 12.4
[3]
  normalised SPOT signal, Boehringer light units (BLU); mean over the file's lines of this peptide: 0
[4]
  normalised SPOT signal, Boehringer light units (BLU); mean over the file's lines of this peptide: 49.9
[5]
  normalised SPOT signal, Boehringer light units (BLU); mean over the file's lines of this peptide: 36

## AAWPLDPARERWTR [YGR031W 269-282]
[1]
  normalised SPOT signal, Boehringer light units (BLU); mean over the file's lines of this peptide: 549
[2]
  normalised SPOT signal, Boehringer light units (BLU); mean over the file's lines of this peptide: 52.7
[3]
  normalised SPOT signal, Boehringer light units (BLU); mean over the file's lines of this peptide: 300
[4]
  normalised SPOT signal, Boehringer light units (BLU); mean over the file's lines of this peptide: 25.5
[5]
  normalised SPOT signal, Boehringer light units (BLU); mean over the file's lines of this peptide: 134

## AIPPPVPNRPGGTT [YLR144C 7-20]
[1]
  normalised SPOT signal, Boehringer light units (BLU); mean over the file's lines of this peptide: 10.1
[2]
  normalised SPOT signal, Boehringer light units (BLU); mean over the file's lines of this peptide: 23.8
[3]
  normalised SPOT signal, Boehringer light units (BLU); mean over the file's lines of this peptide: 11200
[4]
  normalised SPOT signal, Boehringer light units (BLU); mean over the file's lines of this peptide: 186
[5]
  normalised SPOT signal, Boehringer light units (BLU); mean over the file's lines of this peptide: 6020

## AFVPTNPWRSSMSL [YIL162W 315-328]
[1]
  normalised SPOT signal, Boehringer light units (BLU); mean over the file's lines of this peptide: 294
[2]
  normalised SPOT signal, Boehringer light units (BLU); mean over the file's lines of this peptide: 39.8
[3]
  normalised SPOT signal, Boehringer light units (BLU); mean over the file's lines of this peptide: 840
[4]
  normalised SPOT signal, Boehringer light units (BLU); mean over the file's lines of this peptide: 57
[5]
  normalised SPOT signal, Boehringer light units (BLU); mean over the file's lines of this peptide: 58.7

## AAQPPLPSRNVASG [YCR088W 446-459]
[1]
  normalised SPOT signal, Boehringer light units (BLU); mean over the file's lines of this peptide: 98.4
[2]
  normalised SPOT signal, Boehringer light units (BLU); mean over the file's lines of this peptide: 62.8
[3]
  normalised SPOT signal, Boehringer light units (BLU); mean over the file's lines of this peptide: 47300
[4]
  normalised SPOT signal, Boehringer light units (BLU); mean over the file's lines of this peptide: 59700
[5]
  normalised SPOT signal, Boehringer light units (BLU); mean over the file's lines of this peptide: 107000

## YTLPLLPGKGGFRI [YFR048W 228-241]
[1]
  normalised SPOT signal, Boehringer light units (BLU); mean over the file's lines of this peptide: 107
[2]
  normalised SPOT signal, Boehringer light units (BLU); mean over the file's lines of this peptide: 20.3
[3]
  normalised SPOT signal, Boehringer light units (BLU); mean over the file's lines of this peptide: 474
[4]
  normalised SPOT signal, Boehringer light units (BLU); mean over the file's lines of this peptide: 28.3
[5]
  normalised SPOT signal, Boehringer light units (BLU); mean over the file's lines of this peptide: 96.3

## AGQPEIPLKSNNKS [YKL104C 225-238]
[1]
  normalised SPOT signal, Boehringer light units (BLU); mean over the file's lines of this peptide: 69.5
[2]
  normalised SPOT signal, Boehringer light units (BLU); mean over the file's lines of this peptide: 33.5
[3]
  normalised SPOT signal, Boehringer light units (BLU); mean over the file's lines of this peptide: 1260
[4]
  normalised SPOT signal, Boehringer light units (BLU); mean over the file's lines of this peptide: 0
[5]
  normalised SPOT signal, Boehringer light units (BLU); mean over the file's lines of this peptide: 102

## AGTPNVPTRRPILK [YIR003W 42-55]
[1]
  normalised SPOT signal, Boehringer light units (BLU); mean over the file's lines of this peptide: 4210
[2]
  normalised SPOT signal, Boehringer light units (BLU); mean over the file's lines of this peptide: 26.9
[3]
  normalised SPOT signal, Boehringer light units (BLU); mean over the file's lines of this peptide: 24700
[4]
  normalised SPOT signal, Boehringer light units (BLU); mean over the file's lines of this peptide: 448
[5]
  normalised SPOT signal, Boehringer light units (BLU); mean over the file's lines of this peptide: 4390

## ALRPTPPERGSFPL [YLL018C-A 11-24]
[1]
  normalised SPOT signal, Boehringer light units (BLU); mean over the file's lines of this peptide: 230
[2]
  normalised SPOT signal, Boehringer light units (BLU); mean over the file's lines of this peptide: 27.5
[3]
  normalised SPOT signal, Boehringer light units (BLU); mean over the file's lines of this peptide: 1960
[4]
  normalised SPOT signal, Boehringer light units (BLU); mean over the file's lines of this peptide: 448
[5]
  normalised SPOT signal, Boehringer light units (BLU); mean over the file's lines of this peptide: 917

## ASLPVGPRKNGMNV [YAR061W 26-39]
[1]
  normalised SPOT signal, Boehringer light units (BLU); mean over the file's lines of this peptide: 158
[2]
  normalised SPOT signal, Boehringer light units (BLU); mean over the file's lines of this peptide: 88
[3]
  normalised SPOT signal, Boehringer light units (BLU); mean over the file's lines of this peptide: 619
[4]
  normalised SPOT signal, Boehringer light units (BLU); mean over the file's lines of this peptide: 170
[5]
  normalised SPOT signal, Boehringer light units (BLU); mean over the file's lines of this peptide: 167

## YTTPKTPPRPKTIL [YKR028W 957-970]
[1]
  normalised SPOT signal, Boehringer light units (BLU); mean over the file's lines of this peptide: 42.6
[2]
  normalised SPOT signal, Boehringer light units (BLU); mean over the file's lines of this peptide: 53.6
[3]
  normalised SPOT signal, Boehringer light units (BLU); mean over the file's lines of this peptide: 28800
[4]
  normalised SPOT signal, Boehringer light units (BLU); mean over the file's lines of this peptide: 1060
[5]
  normalised SPOT signal, Boehringer light units (BLU); mean over the file's lines of this peptide: 27400

## AGHPMKPHRIRMAH [YNL330C 36-49]
[1]
  normalised SPOT signal, Boehringer light units (BLU); mean over the file's lines of this peptide: 138
[2]
  normalised SPOT signal, Boehringer light units (BLU); mean over the file's lines of this peptide: 162
[3]
  normalised SPOT signal, Boehringer light units (BLU); mean over the file's lines of this peptide: 6490
[4]
  normalised SPOT signal, Boehringer light units (BLU); mean over the file's lines of this peptide: 279
[5]
  normalised SPOT signal, Boehringer light units (BLU); mean over the file's lines of this peptide: 895

## ALEPGIPDRFSPEM [YLR070C 92-105]
[1]
  normalised SPOT signal, Boehringer light units (BLU); mean over the file's lines of this peptide: 102
[2]
  normalised SPOT signal, Boehringer light units (BLU); mean over the file's lines of this peptide: 31.2
[3]
  normalised SPOT signal, Boehringer light units (BLU); mean over the file's lines of this peptide: 96.8
[4]
  normalised SPOT signal, Boehringer light units (BLU); mean over the file's lines of this peptide: 56.6
[5]
  normalised SPOT signal, Boehringer light units (BLU); mean over the file's lines of this peptide: 30.2

## AKSPLLPFKLLSDR [YCL073C 330-343]
[1]
  normalised SPOT signal, Boehringer light units (BLU); mean over the file's lines of this peptide: 84.8
[2]
  normalised SPOT signal, Boehringer light units (BLU); mean over the file's lines of this peptide: 46.2
[3]
  normalised SPOT signal, Boehringer light units (BLU); mean over the file's lines of this peptide: 4310
[4]
  normalised SPOT signal, Boehringer light units (BLU); mean over the file's lines of this peptide: 45.1
[5]
  normalised SPOT signal, Boehringer light units (BLU); mean over the file's lines of this peptide: 229

## YWAPVSPLKSINLF [YLR305C 1424-1437]
[1]
  normalised SPOT signal, Boehringer light units (BLU); mean over the file's lines of this peptide: 104
[2]
  normalised SPOT signal, Boehringer light units (BLU); mean over the file's lines of this peptide: 231
[3]
  normalised SPOT signal, Boehringer light units (BLU); mean over the file's lines of this peptide: 1590
[4]
  normalised SPOT signal, Boehringer light units (BLU); mean over the file's lines of this peptide: 25.1
[5]
  normalised SPOT signal, Boehringer light units (BLU); mean over the file's lines of this peptide: 168

## ALKPKTPSKAPRKR [YBR060C 65-78]
[1]
  normalised SPOT signal, Boehringer light units (BLU); mean over the file's lines of this peptide: 247
[2]
  normalised SPOT signal, Boehringer light units (BLU); mean over the file's lines of this peptide: 103
[3]
  normalised SPOT signal, Boehringer light units (BLU); mean over the file's lines of this peptide: 2060
[4]
  normalised SPOT signal, Boehringer light units (BLU); mean over the file's lines of this peptide: 300
[5]
  normalised SPOT signal, Boehringer light units (BLU); mean over the file's lines of this peptide: 341

## YTNPRAPGKLQDSH [YIL054W 33-46]
[1]
  normalised SPOT signal, Boehringer light units (BLU); mean over the file's lines of this peptide: 153
[2]
  normalised SPOT signal, Boehringer light units (BLU); mean over the file's lines of this peptide: 26.1
[3]
  normalised SPOT signal, Boehringer light units (BLU); mean over the file's lines of this peptide: 478
[4]
  normalised SPOT signal, Boehringer light units (BLU); mean over the file's lines of this peptide: 64.7
[5]
  normalised SPOT signal, Boehringer light units (BLU); mean over the file's lines of this peptide: 238

## AKQPKEPKKRTTRR [YBR089C-A 7-20]
[1]
  normalised SPOT signal, Boehringer light units (BLU); mean over the file's lines of this peptide: 196
[2]
  normalised SPOT signal, Boehringer light units (BLU); mean over the file's lines of this peptide: 105
[3]
  normalised SPOT signal, Boehringer light units (BLU); mean over the file's lines of this peptide: 854
[4]
  normalised SPOT signal, Boehringer light units (BLU); mean over the file's lines of this peptide: 130
[5]
  normalised SPOT signal, Boehringer light units (BLU); mean over the file's lines of this peptide: 78

## AIEPGVPSRYSDET [YDL246C 91-104]
[1]
  normalised SPOT signal, Boehringer light units (BLU); mean over the file's lines of this peptide: 63
[2]
  normalised SPOT signal, Boehringer light units (BLU); mean over the file's lines of this peptide: 22.8
[3]
  normalised SPOT signal, Boehringer light units (BLU); mean over the file's lines of this peptide: 151
[4]
  normalised SPOT signal, Boehringer light units (BLU); mean over the file's lines of this peptide: 35.9
[5]
  normalised SPOT signal, Boehringer light units (BLU); mean over the file's lines of this peptide: 153
